Assay results reported in article PMC3961393, “Progranulin-Derived Atsttrin Directly Binds to TNFRSF25 (DR3) and Inhibits TNF-Like Ligand 1A (TL1A) Activity” (PLoS ONE, 2014).

Legend:
[1] = target: T1, Recombinant hPGRN (human, UniProt P28799 18-593); experiment: ELISA; solid phase binding assay: various dose of Atsttrin or progranulin coated on the plate overnight, biotinylated TNFR2, DR3 or BSA added, detected with avidin-HRP, OD 450 nm; conditions: both partners purified
T1 construct: human progranulin, recombinant; also called Progranulin; source: bought: Adipogen (Cat. No. AG-40A-0188)
T1 sequence (looked up): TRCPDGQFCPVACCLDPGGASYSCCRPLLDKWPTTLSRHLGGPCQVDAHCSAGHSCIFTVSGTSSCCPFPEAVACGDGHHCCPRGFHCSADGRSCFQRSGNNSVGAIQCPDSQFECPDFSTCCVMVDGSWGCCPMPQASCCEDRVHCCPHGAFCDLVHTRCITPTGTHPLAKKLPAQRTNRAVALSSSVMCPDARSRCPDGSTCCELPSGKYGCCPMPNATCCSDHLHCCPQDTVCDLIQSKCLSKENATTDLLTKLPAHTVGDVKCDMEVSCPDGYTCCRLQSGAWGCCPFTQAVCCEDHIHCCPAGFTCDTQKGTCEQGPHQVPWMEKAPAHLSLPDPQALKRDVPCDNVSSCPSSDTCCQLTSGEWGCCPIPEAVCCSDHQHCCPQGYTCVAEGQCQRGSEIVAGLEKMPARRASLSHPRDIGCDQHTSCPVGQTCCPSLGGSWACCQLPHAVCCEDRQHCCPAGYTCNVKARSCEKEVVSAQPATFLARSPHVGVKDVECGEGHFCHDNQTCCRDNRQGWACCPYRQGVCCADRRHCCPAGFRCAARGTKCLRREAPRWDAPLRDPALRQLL

[2] = target: T2, Recombinant protein hTL1A (human, UniProt O95150 72-251); experiment: ELISA; solid phase inhibition assay: 100 ng of TNFa or TL1A coated overnight, 100 ng of TNFR2 or DR3 added together with various dose of Atsttrin, bound receptor detected by anti-TNFR2 or anti-DR3 antibody and HRP secondary antibody; conditions: both partners purified
T2 construct: human TL1A, recombinant; also called TNF-Like Ligand 1A; source: bought: R&D system (Cat# 1319-TL-010)
T2 sequence (looked up): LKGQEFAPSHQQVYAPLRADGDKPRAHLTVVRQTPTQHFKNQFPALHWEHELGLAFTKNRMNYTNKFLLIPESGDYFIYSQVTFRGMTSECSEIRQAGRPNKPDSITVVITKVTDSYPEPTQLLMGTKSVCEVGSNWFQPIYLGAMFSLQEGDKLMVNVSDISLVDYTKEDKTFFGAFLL

B1: recombinant extracellular portion of hDR3 (domain or fragment, human, UniProt Q93038 25-199, looked up)
chain: QGGTRSPRCDCAGDFHKKIGLFCCRGCPAGHYLKAPCTEPCGNSTCLVCPQDTFLAWENHHNSECARCQACDEQASQVALENCSAVADTRCGCKPGWFVECQVSQCVSSSPFYCQPCLDCGALHRHTRLLCSRRDTDCGTCLPGFYEHGDGCVSCPTSTLGSCPERCAAVCGWRQ
modifications: biotinylated (site not stated) in the direct solid phase binding assay; biotin is not mentioned for the inhibition assay
notes: human DR3 (TNFRSF25), recombinant extracellular portion; As I recall, this catalogue item is an Fc chimera; also called DR3 extracellular portion; TNFRSF25; source: bought: R&D system (Cat# 943-D3-050)
[1]
  binding result: binds
[2]
  binding result: binds
